{"source": "paper PMC5216127", "about": "(2017)", "key": {"[1]": {"biological_target": "T1, GST-TCF4 (8–411, deletion 66–325) (human, biotin (only where coated on the streptavidin biosensor, Figure 5e))", "T1 chain": "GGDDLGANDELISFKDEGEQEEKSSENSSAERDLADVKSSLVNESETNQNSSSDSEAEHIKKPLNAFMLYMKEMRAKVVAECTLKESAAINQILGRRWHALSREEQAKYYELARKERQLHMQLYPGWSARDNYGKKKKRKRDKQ", "assay": "BLI"}, "[2]": {"biological_target": "T2, GST-tagged TCF4 (amino acids 326–411) (human)", "T2 chain": "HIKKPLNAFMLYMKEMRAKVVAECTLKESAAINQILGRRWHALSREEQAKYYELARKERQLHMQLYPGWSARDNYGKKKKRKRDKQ", "assay": "BLI"}}, "data": [{"binder": "TEAD4 (TEA, 38–105) (domain or fragment) not shown", "values": [{"measurement": "Kd", "setting": "[1]", "value": 0.132, "unit": "µM"}, {"measurement": "Kd", "setting": "[2]", "value": 0.288, "unit": "µM"}]}]}
